# Experimental data as given in patent publication US20260209293A1 (Novo Nordisk, published 2026).
# *1 amine or outer side, *2 acyl side, *3 side chain or, on linkers, in order; H or OH if unused. Side-chain parts run from the residue outwards. The star is where a group is joined. C20 diacid = O=C(O)CCCCCCCCCCCCCCCCCCC(=O)*; C18 diacid = O=C(O)CCCCCCCCCCCCCCCCC(=O)*; C16 diacid = O=C(O)CCCCCCCCCCCCCCC(=O)*; γGlu = O=C(O)[C@H](CCC(=O)[*:2])N[*:1]
# T1: human amylin-3(a) receptor (human, UniProt P30988 25-474; O60896 24-148)
# T1 sequence (looked up) 1: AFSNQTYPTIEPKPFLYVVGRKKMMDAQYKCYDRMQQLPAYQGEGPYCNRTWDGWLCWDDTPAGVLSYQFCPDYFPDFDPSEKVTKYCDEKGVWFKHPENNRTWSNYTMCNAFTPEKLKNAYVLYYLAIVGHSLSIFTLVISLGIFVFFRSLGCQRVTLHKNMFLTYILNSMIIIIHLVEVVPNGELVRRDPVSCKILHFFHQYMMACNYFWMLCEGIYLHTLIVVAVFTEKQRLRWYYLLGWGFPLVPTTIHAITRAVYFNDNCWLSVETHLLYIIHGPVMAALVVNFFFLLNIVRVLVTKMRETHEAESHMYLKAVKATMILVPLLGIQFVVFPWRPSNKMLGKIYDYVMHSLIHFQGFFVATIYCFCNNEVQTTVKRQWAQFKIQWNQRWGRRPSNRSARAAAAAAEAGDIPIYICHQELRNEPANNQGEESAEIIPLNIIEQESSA
# T1 sequence (looked up) 2: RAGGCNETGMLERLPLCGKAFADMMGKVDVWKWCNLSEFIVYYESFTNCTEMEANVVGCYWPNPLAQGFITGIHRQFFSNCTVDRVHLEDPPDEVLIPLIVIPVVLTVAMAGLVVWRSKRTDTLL
# T2: human calcitonin receptor (a) (human, UniProt P30988 25-474)
# T2 sequence (looked up): T1 sequence (looked up) 1
# B1: N^1-[(4S)-4-carboxy-4-(15-carboxypentadecanoylamino)butanoyl]-[Ala1,Ser2,His3,Leu4,Ser5,Ala7,Gln8,Ala10,Glu14,His17,Asp21,Pro25,Pro28,Pro29,Asp31,Pro37]-human … (peptide)
# peptide: {C16 diacid-γGlu}-ASHLSTAQTARLAEFLHHSSDNFGPILPPTDVGSNTP-NH2
# SMILES: CC[C@H](C)[C@H](NC(=O)[C@@H]1CCCN1C(=O)CNC(=O)[C@H](Cc1ccccc1)NC(=O)[C@H](CC(N)=O)NC(=O)[C@H](CC(=O)O)NC(=O)[C@H](CO)NC(=O)[C@H](CO)NC(=O)[C@H](Cc1c[nH]cn1)NC(=O)[C@H](Cc1c[nH]cn1)NC(=O)[C@H](CC(C)C)NC(=O)[C@H](Cc1ccccc1)NC(=O)[C@H](CCC(=O)O)NC(=O)[C@H](C)NC(=O)[C@H](CC(C)C)NC(=O)[C@H](CCCNC(=N)N)NC(=O)[C@H](C)NC(=O)[C@@H](NC(=O)[C@H](CCC(N)=O)NC(=O)[C@H](C)NC(=O)[C@@H](NC(=O)[C@H](CO)NC(=O)[C@H](CC(C)C)NC(=O)[C@H](Cc1c[nH]cn1)NC(=O)[C@H](CO)NC(=O)[C@H](C)NC(=O)CC[C@H](NC(=O)CCCCCCCCCCCCCCC(=O)O)C(=O)O)[C@@H](C)O)[C@@H](C)O)C(=O)N[C@@H](CC(C)C)C(=O)N1CCC[C@H]1C(=O)N1CCC[C@H]1C(=O)N[C@H](C(=O)N[C@@H](CC(=O)O)C(=O)N[C@H](C(=O)NCC(=O)N[C@@H](CO)C(=O)N[C@@H](CC(N)=O)C(=O)N[C@H](C(=O)N1CCC[C@H]1C(N)=O)[C@@H](C)O)C(C)C)[C@@H](C)O
# B2: N^1-acetyl,N{Epsilon-25}-[(4S)-4-carboxy-4-(17-carboxyheptadecanoylamino)butanoyl]-[Ala1,Ser2,Gln3,Leu4,Ser5,Ala7,Gln8,Glu14,His17,Asp21, Pro22,Lys25, … (peptide)
# peptide: Ac-ASQLSTAQTQRLAEFLHHSSDPFGK([γGlu-C18 diacid])IPSSTDVGPDTP-NH2
# SMILES: CC[C@H](C)[C@H](NC(=O)[C@H](CCCCNC(=O)CC[C@H](NC(=O)CCCCCCCCCCCCCCCCC(=O)O)C(=O)O)NC(=O)CNC(=O)[C@H](Cc1ccccc1)NC(=O)[C@@H]1CCCN1C(=O)[C@H](CC(=O)O)NC(=O)[C@H](CO)NC(=O)[C@H](CO)NC(=O)[C@H](Cc1c[nH]cn1)NC(=O)[C@H](Cc1c[nH]cn1)NC(=O)[C@H](CC(C)C)NC(=O)[C@H](Cc1ccccc1)NC(=O)[C@H](CCC(=O)O)NC(=O)[C@H](C)NC(=O)[C@H](CC(C)C)NC(=O)[C@H](CCCNC(=N)N)NC(=O)[C@H](CCC(N)=O)NC(=O)[C@@H](NC(=O)[C@H](CCC(N)=O)NC(=O)[C@H](C)NC(=O)[C@@H](NC(=O)[C@H](CO)NC(=O)[C@H](CC(C)C)NC(=O)[C@H](CCC(N)=O)NC(=O)[C@H](CO)NC(=O)[C@H](C)NC(C)=O)[C@@H](C)O)[C@@H](C)O)C(=O)N1CCC[C@H]1C(=O)N[C@@H](CO)C(=O)N[C@@H](CO)C(=O)N[C@H](C(=O)N[C@@H](CC(=O)O)C(=O)N[C@H](C(=O)NCC(=O)N1CCC[C@H]1C(=O)N[C@@H](CC(=O)O)C(=O)N[C@H](C(=O)N1CCC[C@H]1C(N)=O)[C@@H](C)O)C(C)C)[C@@H](C)O
# B3: N^1-[(4S)-4-carboxy-4-(17-carboxyheptadecanoylamino)butanoyl]-[Ala1,Gly2,Glu3,Leu4,Ser5,Ala7,Gln8,Ala10,Glu14,His17,Pro25,Pro28,Pro29,Asp31,Glu35,Pro37],des-(19 … (peptide)
# peptide: {C18 diacid-γGlu}-AGELSTAQTARLAEFLHHFGPILPPTDVGSETP-NH2
# SMILES: CC[C@H](C)[C@H](NC(=O)[C@@H]1CCCN1C(=O)CNC(=O)[C@H](Cc1ccccc1)NC(=O)[C@H](Cc1c[nH]cn1)NC(=O)[C@H](Cc1c[nH]cn1)NC(=O)[C@H](CC(C)C)NC(=O)[C@H](Cc1ccccc1)NC(=O)[C@H](CCC(=O)O)NC(=O)[C@H](C)NC(=O)[C@H](CC(C)C)NC(=O)[C@H](CCCNC(=N)N)NC(=O)[C@H](C)NC(=O)[C@@H](NC(=O)[C@H](CCC(N)=O)NC(=O)[C@H](C)NC(=O)[C@@H](NC(=O)[C@H](CO)NC(=O)[C@H](CC(C)C)NC(=O)[C@H](CCC(=O)O)NC(=O)CNC(=O)[C@H](C)NC(=O)CC[C@H](NC(=O)CCCCCCCCCCCCCCCCC(=O)O)C(=O)O)[C@@H](C)O)[C@@H](C)O)C(=O)N[C@@H](CC(C)C)C(=O)N1CCC[C@H]1C(=O)N1CCC[C@H]1C(=O)N[C@H](C(=O)N[C@@H](CC(=O)O)C(=O)N[C@H](C(=O)NCC(=O)N[C@@H](CO)C(=O)N[C@@H](CCC(=O)O)C(=O)N[C@H](C(=O)N1CCC[C@H]1C(N)=O)[C@@H](C)O)C(C)C)[C@@H](C)O
# B4: N^1-[(4S)-4-carboxy-4-(19-carboxynonadecanoylamino)butanoyl]-[Ala1,Ser2,His3,Leu4,Ser5,Ala7,Gln8,Glu14,His17,Asp21,Pro25,Pro28,Pro29,Asp31,Pro37]-human amylin (peptide)
# peptide: {C20 diacid-γGlu}-ASHLSTAQTQRLAEFLHHSSDNFGPILPPTDVGSNTP-NH2
# SMILES: CC[C@H](C)[C@H](NC(=O)[C@@H]1CCCN1C(=O)CNC(=O)[C@H](Cc1ccccc1)NC(=O)[C@H](CC(N)=O)NC(=O)[C@H](CC(=O)O)NC(=O)[C@H](CO)NC(=O)[C@H](CO)NC(=O)[C@H](Cc1c[nH]cn1)NC(=O)[C@H](Cc1c[nH]cn1)NC(=O)[C@H](CC(C)C)NC(=O)[C@H](Cc1ccccc1)NC(=O)[C@H](CCC(=O)O)NC(=O)[C@H](C)NC(=O)[C@H](CC(C)C)NC(=O)[C@H](CCCNC(=N)N)NC(=O)[C@H](CCC(N)=O)NC(=O)[C@@H](NC(=O)[C@H](CCC(N)=O)NC(=O)[C@H](C)NC(=O)[C@@H](NC(=O)[C@H](CO)NC(=O)[C@H](CC(C)C)NC(=O)[C@H](Cc1c[nH]cn1)NC(=O)[C@H](CO)NC(=O)[C@H](C)NC(=O)CC[C@H](NC(=O)CCCCCCCCCCCCCCCCCCC(=O)O)C(=O)O)[C@@H](C)O)[C@@H](C)O)C(=O)N[C@@H](CC(C)C)C(=O)N1CCC[C@H]1C(=O)N1CCC[C@H]1C(=O)N[C@H](C(=O)N[C@@H](CC(=O)O)C(=O)N[C@H](C(=O)NCC(=O)N[C@@H](CO)C(=O)N[C@@H](CC(N)=O)C(=O)N[C@H](C(=O)N1CCC[C@H]1C(N)=O)[C@@H](C)O)C(C)C)[C@@H](C)O
# B5: N^1-acetyl,N{Epsilon-25}-[(4S)-4-carboxy-4-(17-carboxyheptadecanoylamino)butanoyl]-[Ala1,Ser2,Gln3,Leu4,Ser5,Ala7,Gln8,Glu14, His17,Asp21,Lys25, Pro28, … (peptide)
# peptide: Ac-ASQLSTAQTQRLAEFLHHSSDNFGK([γGlu-C18 diacid])ILPPTDVGSNTP-NH2
# SMILES: CC[C@H](C)[C@H](NC(=O)[C@H](CCCCNC(=O)CC[C@H](NC(=O)CCCCCCCCCCCCCCCCC(=O)O)C(=O)O)NC(=O)CNC(=O)[C@H](Cc1ccccc1)NC(=O)[C@H](CC(N)=O)NC(=O)[C@H](CC(=O)O)NC(=O)[C@H](CO)NC(=O)[C@H](CO)NC(=O)[C@H](Cc1c[nH]cn1)NC(=O)[C@H](Cc1c[nH]cn1)NC(=O)[C@H](CC(C)C)NC(=O)[C@H](Cc1ccccc1)NC(=O)[C@H](CCC(=O)O)NC(=O)[C@H](C)NC(=O)[C@H](CC(C)C)NC(=O)[C@H](CCCNC(=N)N)NC(=O)[C@H](CCC(N)=O)NC(=O)[C@@H](NC(=O)[C@H](CCC(N)=O)NC(=O)[C@H](C)NC(=O)[C@@H](NC(=O)[C@H](CO)NC(=O)[C@H](CC(C)C)NC(=O)[C@H](CCC(N)=O)NC(=O)[C@H](CO)NC(=O)[C@H](C)NC(C)=O)[C@@H](C)O)[C@@H](C)O)C(=O)N[C@@H](CC(C)C)C(=O)N1CCC[C@H]1C(=O)N1CCC[C@H]1C(=O)N[C@H](C(=O)N[C@@H](CC(=O)O)C(=O)N[C@H](C(=O)NCC(=O)N[C@@H](CO)C(=O)N[C@@H](CC(N)=O)C(=O)N[C@H](C(=O)N1CCC[C@H]1C(N)=O)[C@@H](C)O)C(C)C)[C@@H](C)O
# B6: N^1-[(4S)-4-carboxy-4-[[(4S)-4-carboxy-4-(17-carboxyheptadecanoylamino)butanoyl]amino]butanoyl]-[Ala1,Ser2,His3,Leu4,Ser5,Ala7,Gln8,Ala10,Glu14,His17,Pro25,Pro2 … (peptide)
# peptide: {C18 diacid-γGlu-γGlu}-ASHLSTAQTARLAEFLHHFGPILPPTDVGSETP-NH2
# SMILES: CC[C@H](C)[C@H](NC(=O)[C@@H]1CCCN1C(=O)CNC(=O)[C@H](Cc1ccccc1)NC(=O)[C@H](Cc1c[nH]cn1)NC(=O)[C@H](Cc1c[nH]cn1)NC(=O)[C@H](CC(C)C)NC(=O)[C@H](Cc1ccccc1)NC(=O)[C@H](CCC(=O)O)NC(=O)[C@H](C)NC(=O)[C@H](CC(C)C)NC(=O)[C@H](CCCNC(=N)N)NC(=O)[C@H](C)NC(=O)[C@@H](NC(=O)[C@H](CCC(N)=O)NC(=O)[C@H](C)NC(=O)[C@@H](NC(=O)[C@H](CO)NC(=O)[C@H](CC(C)C)NC(=O)[C@H](Cc1c[nH]cn1)NC(=O)[C@H](CO)NC(=O)[C@H](C)NC(=O)CC[C@H](NC(=O)CC[C@H](NC(=O)CCCCCCCCCCCCCCCCC(=O)O)C(=O)O)C(=O)O)[C@@H](C)O)[C@@H](C)O)C(=O)N[C@@H](CC(C)C)C(=O)N1CCC[C@H]1C(=O)N1CCC[C@H]1C(=O)N[C@H](C(=O)N[C@@H](CC(=O)O)C(=O)N[C@H](C(=O)NCC(=O)N[C@@H](CO)C(=O)N[C@@H](CCC(=O)O)C(=O)N[C@H](C(=O)N1CCC[C@H]1C(N)=O)[C@@H](C)O)C(C)C)[C@@H](C)O
# Molecular target: T1, human amylin-3(a) receptor
# Assay: cell-based or functional assay
row,"hAmyR3 potency, EC50 (pM); CRE-luciferase reporter in BHK cells",Binder
1,1.62 pM,B1
2,1.5 pM,B2
3,1.25 pM,B3
4,0.9 pM,B4
5,1.38 pM,B5
6,1.11 pM,B6

# Molecular target: T2, human calcitonin receptor (a)
# Assay: cell-based or functional assay
row,"hCalcR potency, EC50 (pM); CRE-luciferase reporter in BHK cells",Binder
1,1.5 pM,B1
2,1 pM,B2
3,1.03 pM,B3
4,1.3 pM,B4
5,1.19 pM,B5
6,1.15 pM,B6
